Here are results for 40 sequences from the nanobody polyreactivity screen of Harvey et al. (2022).

The data set can be described thus: yeast display, Sf9 membrane polyspecificity reagent, FACS + sequencing; frameworks hold sequencing errors. In short, it runs like this: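 Sorting gates, low and high (top ~1%), were placed on anti-HA fluorescence to track expression and on streptavidin fluorescence to track reagent binding. A clone's polyreactivity label is taken from the gate it came out of. The reagent was 10% biotinylated, detergent-solubilized Sf9 membrane, applied for 1 hour at 4 °C to galactose-induced yeast display cells.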
Take “QVQLVESGGRKVQAGGSLRLICAASGSIFYAYTMGRYRQAPGKERELSTYADSVKGRFTISRDNAKNTVYLQMNSLKPEDTAVYYCNARFYKKTLSYRVKYRMEYWGQGTQVTVSS”: the “polyreactivity (PSR sort gate)” value is “low polyreactivity”.

On to “QVNLVESGGGLVQAGGSLRLSCAASGRIFRKYAMGWYRQAPGKVREFVAAITVSGDRTYYADSVKGRFTISRDNAKNNVYLQMNSLKPEDTAVYYCATKGYYYPYVTYDYWGQGTQVTVSS”, for which the “polyreactivity (PSR sort gate)” value is reported as “low polyreactivity”.

Take “QVQLVESGGGLVQAGGSLRLSCAASGYIFSGYAMGWYRQAPGKERELVAAISSNGGSTYYADSVKGRFTISRDNAKNTVNLQMNSLKPEDTAVYYCNRGLAARVGRGDYWGQGTQVTVSS”: the “polyreactivity (PSR sort gate)” value is “low polyreactivity”.

On to “QDQLVESVGGLVQAGGSLPLSSAASGLTFKRNAMRWYSQAPGKERELVAAIRYSTDSTNYADSVKGRFTISRDNAKNTVYCQMNSLKPESTAVYYCAKDKQDYEYWGQGTQVTVSS”, for which the “polyreactivity (PSR sort gate)” value is “low polyreactivity”.

Consider “QVQLVESGGGLVQAGGSLRLSCAASGIIFRRYAMGWYRQAPGKERELVATITRSGSTNYADSVKGRFTISRDNAKNTVYLQMNSLKPEDTAVYYCNADYIRGGWYSEDYWGQGTQVTVSS”, for which the “polyreactivity (PSR sort gate)” value is “high polyreactivity”.

For “QVQIVESWGGLVQAGGSLRVSCATSGGIFRFNAMGSYRHAPGKERELVAAITSSVGSTYYADSVKGRFTFSRDNAKNTVDLQLNSLKPEDTAVDDCAAVITRVAIVFSTEYDYWGQGTQVTVSS”, the “polyreactivity (PSR sort gate)” value was “low polyreactivity”.

As for “QVQLVESGGGLVQAGGSLRLSSAASGSIFWHYAMGRYRQAHGKERQLVAGISTRGGITYFADSVKGRFTISRDNAKNTVYLQMNSLKPEDTAVYYCNGVLFFQWFWTYDDYWGQGTQVTVSS”, the “polyreactivity (PSR sort gate)” value is “low polyreactivity”.

In the case of “QVQLVESGGGLVQAGGSLRLSCAASGSIFAGNAMGWYCHAPGKERELVAAIRYGGTSTYYADSVKGRFTISRDNAKNTVYLQMNSLIPEDTAVYYCAATDWWGYYYWGQGTQVTVSS”, the “polyreactivity (PSR sort gate)” value is on record as “high polyreactivity”.

Take “QVQLVESGGGLVQAGGSLRLTCAASGFIFSKNAMGWYRQPPGKERELVAAIDTSGSSTYYAYSVKGRFTISRDNAKNSVYLQMISLKPEDTAVYYCNRDDYFFSRFDYWGQGTQVTVTS”: the “polyreactivity (PSR sort gate)” value is “low polyreactivity”.

Consider “QVQLVESGGGLVQAGGSLRLSCAASGSTSYTNAMGWYRQAPGKERELVARITNDGSTTYADSVKGRFTISRDNAKNTVYLQMNSLKPEDTAVYYCARPYRFWRYYGMYYWGQGTQVTVSS”, for which the “polyreactivity (PSR sort gate)” value is listed as “high polyreactivity”.

With “QVQLVESGGGLVQAGGSLRLSCAASGSTFARNAMGWYRQAPGKERELVAAITNAGDTNYADSVKGRFTISRDNAKNTVYLQMNSLKPEDTAVYYCAAEPILIDEYWGQGTQVTVSS”, the “polyreactivity (PSR sort gate)” value was “low polyreactivity”.

On to “QVQLVESGGGLVQAGGSLRLSCAASGSTFAHNAMGWYRQAPGKERELVAAISRRGGSTYYADSVKGRFTISRDNAQNTVYLQMNSLKPEDTAVYYCNAVAHNVRVYRFYPGWAGLDYWGQGTQVTVSS”, for which the “polyreactivity (PSR sort gate)” value was “high polyreactivity”.

On to “QVQLQESGGGLVQAGGSLRLSCAASGNISVTGIMGWYRQAPGKERELVASIGIGGTTYYADSVNGRFSISRDNAKNTVYLQMISLKPEDTALYYLAARYLYYAYSYWGQGTQVTVSS”, for which the “polyreactivity (PSR sort gate)” value is “low polyreactivity”.

For “QVQLVESGGGLVQAGGSLRLSCAASGRTFGINDMGWYRQAPGKERELVAVIRSGGGITFYADSVKGRFTISRDNAKNTVYLQMTSLKPEDTAVYYCAKTRRDFYDAINGGGPERYDYWGQGTQVTVSS”, the “polyreactivity (PSR sort gate)” value is “low polyreactivity”.

Regarding “QVQLEESGGGLVQAGGSLRLSCAAYGGIFKQYAMGWYRQAPGKETELVAAITWSGGSTYYADSVKGRFTISRDNAKTTVSLQMNSLKPEDTAVYYCAKDYVVFQYVDFQDDDYWGQGTQVSVSS”, the “polyreactivity (PSR sort gate)” value was “low polyreactivity”.

Regarding “QVQLVESGGGLVQAGGSLRLSCAASGFTFRAYTMGWYRQAPGTERGLVAAITYSGGRTYYADSVKGRFTISRDNAKNTVYLQMNSLKPEDTAVYYCAAVRTKVWRGPEMDYWGQGTQVTVSS”, the “polyreactivity (PSR sort gate)” value was “high polyreactivity”.

For the sequence “QVQLVESGGGLVQAGGSLRLSCAASGSTFCINAMGWYRQAPGKERDLVAAISSRGGSTYYADSVKGRFTISRDNAKNTVYLQMNSLKPEDTAVYYCAAEFAVSFYWSWLGQDYNYWGQGTQVTVSS”, the “polyreactivity (PSR sort gate)” value is “high polyreactivity”.

Turning to “QVQLVESGGGLVQAGGSLRLSCAASGFTFRSYAMGWYRQAPGKERELVAGITWRGGRTYYADSVKGRFTISRDNAKNTVYLQMNSLKPEDTAVYYCAVRNASKNRKYYYWGQGTQVTVSS”, the “polyreactivity (PSR sort gate)” value is given as “high polyreactivity”.

With “QVQRVESGGGLVQAGGSLRLSCAASGSIFYGNAMGWYRQAPGKERELVAAISWSGGSTYYADSVKGRFTISRDNAKNTVYLQMNSLKPEDTAVYYCATVADEPRAYSGYEESDYWGQGTQVTVSS”, the “polyreactivity (PSR sort gate)” value was “low polyreactivity”.

With “QVQLVESGGGLVQAGGSLRLSCAASGIIFRRNAMGWYRQAPGKERELVASITSGGSTNYADSVKGRFTISRDNAKNTVYLQMNSLKPEDTAVYYCATVRKYRAMDYWGQGTQVTVSS”, the “polyreactivity (PSR sort gate)” value was “high polyreactivity”.

Turning to “QVQLVESGGGLVQAGGSLRLSCAASGSIFGDYVMGWYRQAPGKERELVAAITFGGGRTYYADSVKGRFTISRDNAKNTVYLQMNSLKPEDTAVYYCAVSRKGLGSVEYWGQGTQVTVSS”, the “polyreactivity (PSR sort gate)” value is recorded as “low polyreactivity”.

As for “QVHLVESGGGLVQAGGSLRLSCAASGSIFGGYAMGWSRQAPGKERELVAAISYRGASTYYADSVKGRFTISRDNAKNTVYLQMNSLKPEDTAVYYCNADDRGSTYVDFDYWGQGTQVTVSS”, the “polyreactivity (PSR sort gate)” value is recorded as “low polyreactivity”.

On to “QVHLVESGGGLVQAGGSLRLSCDASGSIFASNTMGWYRQEPGQERELVAGITKIGSSTYYADSVKGRFTISRDHAKNTVYLKMNSLTPEDTAVYYCNAYGPNIYSSRYEYWGQGTQVTVSS”, for which the “polyreactivity (PSR sort gate)” value was “low polyreactivity”.

In the case of “QVQLVESGGGLVQAGGSLRLSCAASGRIFASYAMGWYRQAPGKERELVAAISKSGGRTYYADSVKGRFTISRDNAKNTVYLQMNSLKPEDTAVYYCAADGYRYYSWTRFSYYSGYDYWGQGTQVTVSS”, the “polyreactivity (PSR sort gate)” value was “high polyreactivity”.

With “QVQLVESGGGLVQAGGSLRLSCAASGRILPLYAMGWYRQAPGKERELVARIDSGGSTNYADSVKGRFTISRDNAKNTVYLQMNSLKPEDTAVYYCAAVVTAQAYAYFTYGYDYWGQGTQVTVSS”, the “polyreactivity (PSR sort gate)” value was “low polyreactivity”.

Take “QVQLVESGGGLVQAGGSLRLSCAASGSTFGVYAMVWYRQAPGKERELVAAINYSGRTYYADSVKGRFTISRDNAKNTVYLQMNSLKPEDTAVYYCAARIIVDDVGTKYYYWGQGTQVTVSS”: the “polyreactivity (PSR sort gate)” value is reported as “high polyreactivity”.

As for “QVQLVESGGGLVQSGGSLRLSCAGSGSTLYYYVMGWYRQAPGKERELVAAISSSGDSTYYADSVKGRFTISRDNAKNTVSLQMNSLKPEDTAVYYCNAGWYFYGESTDDYWGQGTQVTVSS”, the “polyreactivity (PSR sort gate)” value is reported as “low polyreactivity”.

For the sequence “QVQLEESGGGLVQAGGSLRLSCAASGRTFYYNAMGSSRQAPGKERELVAGITYRGGSTYYADSVKGRFTISRDNAKNTVYLQMNSLKPEDTAVYYCAVKYSWLSRFNYWGLGTQVTVSS”, the “polyreactivity (PSR sort gate)” value is given as “high polyreactivity”.

Turning to “QVQLVESGGGLVQAGGSLRLSCAASGSTFYPNAMGWSRQAPGKERELVAAISRGTRTKYADSVKGRFTISRDNAKNTVYLQMKSLKPEDTAVYYCAADTGTGLDWGQGTQVTVSS”, the “polyreactivity (PSR sort gate)” value was “high polyreactivity”.

Take “QVQLVESGGGLVQAGGSLRLSCAASGITFRGYAMGWYRQAPGKERELVATISSGGSTNYADSVKGRFTISRDNAKNTVDLQRISLKPEDTAVYYCNAVYRRGYGYWGQGTQVTVSS”: the “polyreactivity (PSR sort gate)” value is “high polyreactivity”.

Turning to “QDQLVESGGGLVQAGGSLRLSCAASGRIFDTNAMGRYRQAPGKERELVATNTRSAGRTYYADSVKGRFTISRDNAKIKVFLQMNILKPEDTAVYFCNADWGPTYEIYDSWGQGTQVTVSS”, the “polyreactivity (PSR sort gate)” value was “low polyreactivity”.

As to “QVQLVESGGGLVQAGGSLRLSCAASGFTFSYYAMGWYRQATGKERELVAAITSGGSTDYADSVKGRFTISRDNAKNTVYLQMNSLKPEDTAVYYCAVTARGGYQGKGTRRIYGYWGHGTQVTVSS”, the “polyreactivity (PSR sort gate)” value is recorded as “high polyreactivity”.

As for “QVQLVESGGGLVQAGGSLRLSCAASGRIFTKYAMGWYRQAPGKERELVAAISGSGGNTYYADSVKGRFTISRDNAKNTVYLQMNSLKPEDTAVYYCAVESWRYVGFGYWGQGSQVTVSS”, the “polyreactivity (PSR sort gate)” value was “high polyreactivity”.

Regarding “QVQLVESGGGLVQAGGSLRLSCAASGFTFWTYAMGWYRQAPGKERELVAAIDSGGSTYYADSVKGRFTISRDNAKNTVFLQMNSLKPEDTAVYYCIAGPSVTSGYDYDYWGQGTQVTVSS”, the “polyreactivity (PSR sort gate)” value is “low polyreactivity”.

Turning to “QVQLVESGGGLVQAGGSLRLSCAASGRTFATYMGWYRQAPGKERELVAGITRGGNTNYADSVKGRFTISRDNAKNTVYLQMNSLKPEDTAVYYCAKLKYRSHYSWGQGTQVTVSS”, the “polyreactivity (PSR sort gate)” value is “high polyreactivity”.

Regarding “QVQLVESGGGLVQAGGSLRLSCAASGRTFDVNAMGWYRQAPGKERELVAAITWDGGSTYYADSVKGRFTISRDNAKNTVYLQMNSLKPEDTAVYYCAADFIQGAWWYVTYRYTYEYWGQGTQVTVSS”, the “polyreactivity (PSR sort gate)” value is given as “low polyreactivity”.

As to “QVQLVESGGGLVQAGGSLRLSCAAYGRYYSRNPMGWYRQAPGKERELVAAITWRGGSTYYADSVKGRFTISRDNAKNTVFLQMISLKPEDTAVYYCNRDYRQYGYAYSGRYYWGHGTQVTVSS”, the “polyreactivity (PSR sort gate)” value was “high polyreactivity”.

Regarding “QVQLVESGGGLVQAGGSLRLSCAASGRTFGYYAMGWYRQAPGKERELVAAISSRGGSTSYADSVKGRFTISRDNAKNTVYLQMNSLKPEDTAVYYCAVGRPRPKYEYDYWGQGTQVTVSS”, the “polyreactivity (PSR sort gate)” value was “high polyreactivity”.

“QVQLVESGGGIVQAGGSLRLICAASGSIFDGYAMGWYRQAPGKERELVAAISASGVRTYYADSVKGRFTISRDNAKNTVYLQMKSLKPEDTAVYYGAAAVYYGQSVWYYYWGQGTQVTVSS”: the “polyreactivity (PSR sort gate)” value is reported as “high polyreactivity”.

With “QVQHVESGGGLVQAGGSLRLSCAASGSILRSYAMGWFRQAPGKERELVAVINGSGGRTYYADSVKGRFTISRDNEKNTVYLQMISLKPEDTAVYYCNADPGGRYPRRGYAHEGDYWGQGTQVTVSS”, the “polyreactivity (PSR sort gate)” value is listed as “low polyreactivity”.
